Laboratory results taken from patent US20150132314A1 (NOVIMMUNE S A, published 2015).

T1: cynomolgus IL-17F homodimer, His-tagged (cynomolgus, UniProt G7P4V0 31-163)
T1 sequence: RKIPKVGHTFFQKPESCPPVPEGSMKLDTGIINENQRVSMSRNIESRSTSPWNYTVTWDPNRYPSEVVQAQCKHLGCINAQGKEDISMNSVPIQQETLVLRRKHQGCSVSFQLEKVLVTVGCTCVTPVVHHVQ

T2: human IL-17F homodimer (human, UniProt Q96PD4 31-163)
T2 sequence (looked up): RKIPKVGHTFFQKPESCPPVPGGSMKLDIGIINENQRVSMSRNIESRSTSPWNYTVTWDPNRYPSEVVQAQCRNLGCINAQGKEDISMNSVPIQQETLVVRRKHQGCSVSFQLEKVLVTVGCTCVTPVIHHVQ


How the values were obtained:
[1] = biological target: T1, cynomolgus IL-17F homodimer, His-tagged; experiment: cell-based or functional assay
human IL-17F homodimer = biological target: T2, human IL-17F homodimer; experiment: cell-based or functional assay

IC50 (nM), IL-6 secretion by MEF cells stimulated with IL-17F (5 ng/ml) and mTNF-α [1] | IC50 (nM), IL-6 secretion by MEF cells stimulated with IL-17F (5 ng/ml) and mTNF-α (human IL-17F homodimer) | Binder
22 nM | – | 5E12 antibody (antibody, V domains shown) VH: QVQLVQSGGGLVQPGRSLRLSCAASGFTFDDYAMHWVRQAPGKGLEWVSGISWNSGTIGYADSVKGRFTISRDNAKNSLYLQMNSLRAEDTALYYCAKELYISDWDSYSYGMDVWGQGTTVTVSS VL: not shown
11 nM | 1.1 nM | 1F1 antibody (antibody, V domains shown) VH: EVQLLESGGGLVQPGGSLRLSCAASGFTFSSYVMSWVRQVPGKGLEWVSAISGRGGNTFYADSVKGRFTISRDNSKNTLYLQMDSLRAEDTAVYYCAKDDRRIAAGSFDYWGQGTTVTVSS VL: AIQLTQSPSSLSASVGDRVTITCRASQGISSALAWYQQKPGKAPKLLIYDVSSLESGVPSRFSGSGSGTDFTLTISSLQPEDFATYYCQQFNSYPLTFGGGTKVEIK
2.9 nM | 0.4 nM | 11C5 antibody (antibody, V domains shown) VH: QVQLVQSGAEVKKPGASVKVSCKASGYTFTIYYLHWVRQAPGQGLEWMGIINPSGGRTNYAQKFQGRVTMTRDPSTNTVYMELSSLTSEDAAVYYCARGEFSSGWLDYWGQGTTVTVSS VL: DIQMTQSPSSVSASVGDRVTITCRASQGISSWLAWYQHKPGKAPKLLIYAASSLQSGVPSRFSGSGSGTDFTLTISSLQPEDFATYYCQQANSFPLTFGGGTKVEIK
6.3 nM | 1.2 nM | 28B11 antibody (antibody, V domains shown) VH: QVQLVESGGGLVKPGGSLRLSCAASGFTFSNYYMTWIRQAPGKGLEWISYISSTGGNIYYADSVKGRFTISRDNAQNSLYLQMNSLRAEDTAVYYCARDGGVIISTAMFDYWGQGTTVTVSS VL: AIQLTQSPSSLSASVGDRVTITCRASQGISSALAWYQQKPGKAPKLLIYDASSLESGVPSRLSGSGSGTDFTLTISSLQPEDFATYYCQQFNSYPLTFGGGTKVEIK
18 nM | – | 41B10 antibody (antibody, V domains shown) VH: not shown VL: DIQMTQSPSSLSASVGDRVTITCRASQGISSWLAWYQQKPEKAPKSLIYAASSLQSGVPSRFSGSGSGTDFTLTISSLQPEDFATYYCQQYNSYPITFGQGTRLEIK
12 nM | 0.5 nM | 5D3 antibody (antibody, V domains shown) VH: EVQLVESGGGLVQPGRSLRLSCAASGFTFDDYAMHWVRQAPGKGLEWVSGISWNSGSRGYADSVKGRFTISRDNAKNSLYLQMNSLRAEDTALYYCAKDMVYALDVWGQGTTVTVSS VL: EIVLTQSPGTLSLSPGERATLSCRASQSFSGSYLAWYQQKPGQAPRLLIYDTSSRATGIPDRFSGSGSGTDFTLTISRLEPEDFAVYYCQQYGTWTFGQGTKVEIK
8.4 nM | 1.1 nM | 43G6 antibody (antibody, V domains shown) VH: EVQLVESGGGLVQPGGSLRLSCAASGFTFSSYSMNWVRQAPGKGLEWVSYISSGSSTIYYADSVKGRFTISRDNAKNSLYLQMNSLRDEDTAVYYCAREGYVSGTYYNYYYGMDVWGQGTTVTVSS VL: EIVLTQSPATLSLSPGERATLSCRASQSVSSYLAWYQQKPGQAPRLLIYDAPNRATGIPARFSGSGSGTDFTLTISSLEPEDFAVYYCQQRSNWSLTFGGGTKVEIK
10 nM | 2 nM | 22F8 antibody (antibody, V domains shown) VH: EVQLLESGGGLVQPGGSLRLSCAASGFTFSSYAMNWVRQAPGKGLEWVSTISGRGGSIYYADSVKGRFTISRDNSKNTLYLQMNSLRAEDTAVYYCAKEEATWDFDYWGQGTTVTVSS VL: EIVLTQSPATLSLSPGERATLSCRASQSVSSFLAWFQQKPGQAPRLLIYDASNRATGIPARFSGSGSGTDFTLTISSLEPEDFAVYYCQQRSNWPPTFGQGTKVEIK
8.7 nM | 2 nM | 21B10 antibody (antibody, V domains shown) VH: EVQLVESGGGLVQPGGSLRLSCAASGFTFSSYSMNWVRQAPGKGLEWVSYISGGSSTIYYADSVKGRFTISRDNAKNSLYLQMNSLRDEDTAVYYCAREGYVSGTYYNYYYGMDVWGQGTTVTVSS VL: EIVLTQSPATLSLSPGERATLSCRASQSVSSYLAWYQQKPGQAPRLLIYDAPNRATGIPARFSGSGSGTDFTLTISSLEPEDFAVYYCQQRSNWSLTFGGGTKVEIK
26 nM | 5.9 nM | 2E12 antibody (antibody, V domains shown) VH: EVQLVESGGGLVQRGGSLRLSCAASGFTFSSYSMNWVRQAPGKGLEWISYISSSSSAIYYADSVKGRFTISRDNAKNSLYLQMNSLRDEDTAVYYCAREGYASGRYYNYYYGMDVWGQGTTVTVSS VL: EIVLTQSPATLSLSPGERATLSCRASQSVSSYLAWYQQKPGQAPRLLIYDASNRATGIPARFSVSGSGTDFTLTISSLEPEDFAVYYCQQRSSWSLTFGGGTKVEIK
